Assay results as given in the DeepSol protein solubility set.

Experiment: soluble on expression in E. coli; label from the status in PepcDB or PDB records

| Sequence | soluble on expression in E. coli |
| --- | --- |
| MPCRLTRLFGIEFPIIQAPMAGVQGSALAIAVSEAGGLGSLPCAMLSLEALEAELTAIRSQTAKPINVNFFCHREPVAQAAKQAAWLEQLAPYFAEFNLDPNAQPAGAQRTPYSKAQAEVLAKFKPEVVSFHFGLPDEELLLEIKSWGSKVISTATTVEEALWLEARGADAIIAQGLEAGGHRGHFLSEDLTEQLGTFSLLPQIIAAVEIPVIAAGGIVDATTVRAAMTMGASAVQVGTAYLLCPECNTSAIHREALQSDAAQHTALTNLFSGRPARGIVNRFMAEMGPMNEAVPDFPLASSAVAGLRTAAERLGFWDFSPLWCGQNASGCRAIPAADLTRSFVLSLPSSCVEPQEKSGAAALEHHHHHH | not soluble |
| DHYACVSSGGQCLYSACPIFTKIQGTCYRGKAKCCK | soluble |
| MGSDKIHHHHHHMRTVLYDEHAKLNAKFTEFNGWDMPLYYRSIIEEHMAVRKHVGIFDVSHMGDVTVSGKDASAFLDHMFPTKVSNLKNGECVYTAFLNDSGLMIDDTIVYRMGEDSYFFVPNAGTTEKIYRWVSDHSAGYSVKIENVSNRISSIALQGPESEEVLNELGFSYPGYFKFQYVSGKYMNAITGKDQIIISGTGYTGEKGVEFIIPNEHAVELWKKLLEAINKRNGLPAGLGARDTLRMEKGMLLSGHDFNEDRDPYEASVSFIVNNDEDFVGKKNLEIRRRSDHEIFRGFVLSDGIPRNGNPIKAGGKRVGTVTSGTISPVLNKGIALGYIDKAYSKENTEVMIEIRSVDHKAVVTKPRIVK | not soluble |
| MGSDKIHHHHHHMINLFLYCRAGYEKDCAAEIQQRAAELNVGGFVKTNRNDGYVIFQCFQVGDADLLAEQIELDSLIFTRQMFAANELLKDLPEGDRVTPIVDALAKVHRAGELRVETPDTNEAKELSTFCRKLTVPLRQALKRSGALLEKENPKRPIIHVCFVGPGTAYVGYSLSHNSSPYFMGIPRLKMASDAPSRSTLKLDEAFIHFIPKSEQEQRLRSGMNSVDLGACPGGWTYQLVRRGMFVAAVDNGPMAQNLMDTGQVRHYQADGFRFEPPKKNIYWLVCDMVEKPSRVAELMEAWAINGWFKEAIFNLKLPMKSRYKEVSTILATMQEVLRENGIDDFHLACKHLYHDRDEVTVHLWLKPSVGFNFG | not soluble |
| MSSNLIRFVGNHDIASEGKFLFEILSQLRNFGVGRLVTKNEWTRKWPNNPSYMKILRAEPGMDRWLFEGKVYAEWVFRGKNLGVYEFSKDLNRSDWQLVHKHQEKSYTSSTTPMQDLVLPDSFPLPPLQVHLSQKSARKNGLDEKTVSRRAPLTLSVDPEFQHLKPFIKQEAPSTKSVSIYEEVDKNALLDLYGNELPVKVEAWNAGPAMFQPRFNATTMRVEEQPPK | not soluble |
| MDEVANALAVSQTMMEKMQKLEISKNYDVEKFETLLRLPARDVNTFMEKEAKKTDDEKMTDMDRRIKRIREDKTDRAARTLQKYFRKIRVKGEQNHINKRISKIPAKRRVVLLEQIRQKMGEQQPIRRFGGYQVIRAVELHKGKQKLQKDWLAKLSIDVNFHDKNLSRPNSPTHFIANSIPTLIRKKAEMKHAEKMQEIDSSIMDIYCGFQKDNLH | not soluble |
| MEFMRVLLIAGGVSPEHEVSLLSAEGVLRHIPFPTDLAVIAQDGRWLLGEKALTALEAKAAPEGEHPFPPPLSWERYDVVFPLLHGRFGEDGTVQGFLELLGKPYVGAGVAASALCMDKDLSKRVLAQAGVPVVPWVAVRKGEPPVVPFDPPFFVKPANTGSSVGISRVERFQDLEAALALAFRYDEKAVVEKALSPVRELEVGVLGNVFGEASPVGEVRYEAPFYDYETKYTPGRAELLIPAPLDPGTQETVQELALKAYKVLGVRGMARVDFFLAEGELYLNELNTIPGFTPTSMYPRLFEAGGVAYPELLRRLVELALT | soluble |
| MRLNLRQLQIFCAITRFGSTTSAGNALALSQSATSAALNELEGALGTRLFDRVGKRLVLNDSGQSLLPRAMKMLENAQQIEDSFLLPDTTLNARLRIGSSSTIGNYELPSIVGALRESAPLLRVDVDIGNSALIARKVARFEIVMGLIEAPCHLPELIAEPWSVDEMVIVAGINHPLARQKQVSLGELQDAEWLLREPGSGTREEVEHLLLRHLHDLQDLREIGSSEAIKRTLAQGIGISCLSRRVVADLLASGQLKALASPLPPLNRRFFMIRHRDKFISPSLERFREACRQATDQAATLRHGLSHNASPTSSTTP | not soluble |
| MRDVQKQYNKQEGFVQGYSIIDSYSEDEIPKDGKRSTIQLVHEMGLEKARRIYGENYQCLVATQCDGKSGLYHNHLISNAVGNDGKSQRGDMTKWTKLAEISDQVMIDYGYTPLDKNNWRLNKTRKAEARSKGEYVSPNERKARKNGMTLAKDEVREQIQKVIDDETVKSFEDFKQMLNEEYQIGVEDAGTKDGENIKYSFSYTNKKGETSEKTIKAKTLSKEDYTLSGVKSKIEDKLLETGNFEINENDLTQQQQQMLSNLIVPEDDEDELELEFDDESLAFLDQINEEVKEYGREKHSSKATRNNQRVEKQHRDHQRHVENNERSTTRTKSSSKRAKDKDAGFELG | not soluble |
| MAAATTTASAFKWPWQYDFPPFFTIQKSLNTKDKQLEAWARLVIDYAQHNKIYSLDIAEATTSELFNNQKLNRRLSTDGVNTVLQYLEQKKLIEFTDNGRTRFHIFWRRPDVWANMIYQWAVENAFINTPLTLYEITHGDDTTNESFHNLEREILMKALTCLEEQRRAQLMNIGGDNEGVKFI | soluble |
| MKLVNVTNSYKQLVNKQLENTDAYFVKVYSAGNTTAVYSEAAHHVEVLIMNKNRRIRPTEVKEILAKLLKRLPKEAYDPDEISIIELNHVTEVSVPLKVSLMEN | not soluble |
| CTEPLGLKDNTIPNKQITASSYYKTWGLSAFSWFPYYARLDNQGKFNAWTAQTNSASEWLQIDLGSQKRVTGIITQGARDFGHIQYVAAYRVAYGDDGVTWTEYKDPGASESKIFPGNMDNNSHKKNIFETPFQARFVRIQPVAWHNRITLRVELLGC | soluble |
| MSLETSRNLSNFFDVSADLLSISNMQGRFVKVNRAWETALGYPIEALEGVPFLPLLHPEDQQSTRVQINRIEVDDEVNGFVNRYRRADGSYCQLEWRARRCDDLVFGVARDVTERLRIQAEMAEARDAAEAANRAKNDFLANMSHEIRTPLNGVIALAAALDETPLTSKQAEMVAMIRRSGETLERLVSDILDVSKIEAGQMTLQPQAFDLGALVDGLLDVTRLRAKEKGVAVRLERSPTAAGGFLGDSVRIGQVLSNLFSNAVKFTDQGEVIVRVDVEEAGNGQAARLFVEVEDTGVGFDAEKAEMIFQRFNQADSTITRRFGGSGLGLSISKTLVEMMGGEITAQSSPGAGSLFRVTLPLSRTQMGPDAEIDAPRSAAPGEGLKVLLAEDHPINQRVVQLILEPCGAAVTVVENGAQAVEAMASGAFDVVLMDMQMPVMDGLAATRAIRAREGEGQRTPIIMLSANAMDVHRREALQAGADLHVPKPITIAALLDSIGQVMAREGHHHHHH | soluble |
| MYKRYVAQIIFALTILISAPSWAETEETGPKLAYFTLEPDLTTNFYTKGKKLGYVQVRIDIMVMSQQDLAIVEHHQPLIRDAVIELLGKQTEDTIKSLSGREDLRKTLVKELNETLLPETGKTVIADLLFTKYLYQ | not soluble |
| MKYCKFCCKAVTGVKLIHVPKCAIKRKLWEQSLGCSLGENSQICDTHFNDSQWKAAPAKGQTFKRRRLNADAVPSKV | soluble |
| MVVVCASHIQPAIICRFTWLRFLMEIILIRHGKPTSANNPVLNAVDFTKWVRRYNFSDVSTNSRPDSILDEYKSHYIVSSDLERAIHSASIYTGQSPELTSKLYREMEIPRYKFPLRFKAMTWVYINRAFWMLGLKGSFESYRQAKIRAELASDHLVELAREQDKVILFGHGYLNLHIRRSLIKKGWKLNSKSNGFWGISSLEGLEHHHHHH | not soluble |
| MDNFMDYIYRDFHIMQQTYATLVSVNNKIQIQTDKYSDNITSRQYMTILAIFHLPEDETTLNNIAKKLGTTKQNIKQIINILEGKGYVQTMPSKQDKRAINVSVTKEGWQVAESYAEKSFELFGDIFNDFSVEEMKILWMLLKKLYRFDGEEQDGFEEDANPSGELTEEQIEMAEAFARRRREKYGSK | not soluble |
| MSLKKLISGIIAVAMALSLAACQKETKVISLSGKTMGTTYHVKYLDDGSITATSEKTHEEIEAILKDVNAKMSTYKKDSELSRFNQNTQVNTPIEISADFAKVLAEAIRLNKVTEGALDVTVGPVVNLWGFGPEKRPEKQPTPEQLAERQAWVGIDKITLDTNKEKATLSKALPQVYVDLSSIAKGFGVDQVAEKLEQLNAQNYMVEIGGEIRAKGKNIEGKPWQIAIEKPTTTGERAVEAVIGLNNMGMASSGDYRIYFEENGKRFAHEIDPKTGYPIQHHLASITVLAPTSMTADGLSTGLFVLGEDKALEVAEKNNLAVYLIIRTDNGFVTKSSSAFKKLTETKEEGGSHHHHHH | soluble |
| VTSSLPTVQRVIQNALEVSQLKYSQHPRPGGAPPALIVELPGERKLKINTILSVGEHSVRVEAFVCRKPDENREDVYRFLLRRNRRLYGVAYTLDNVGDIYLVGQMALSAVDADEVDRVLGQVLEVVDSDFNALLELGFRSSIQREWQWRLSRGESLQNLQAFAHLRPTTMQSAQRDEKELGG | soluble |
| MSVQLKCDAVNCVYNRSHLCSAEEIEVQGGETTGGDATFCGTFSSKSLGNFVSSLGNMNYSGSLKQAVSAEPIMDPKVHCNAVNCTYNDQRYCHADQVEIRNEVSHTAEETECQTFYPKMSLEHHHHHH | not soluble |
| DGISSLLKPLSKIGLDTKTFALLISMTLRFVPILSDEFSTIVDAQRSRGLSLKTGSIVKRTKTLIPMIIPLISVAFKKALTLADTMEIRGFIDAKSRTSFHQLKFQKID | not soluble |
| MKIDKYSAILGNTVGFHNMSTLTDHRPVASLPFGGKYRLIDFPLSSLANAGVRSVFGIFQQDNISSVFDHIRSGREWGLSTLLSHYYLGIYNTRVESSTVGKEYYQQLLTYLKRSGSNQTVALNCDVLINIDLNQVFHLHSTTKEPITVVYKKLAKKDISEVNAILDVDETDHVLSHKLFDSKSTAETFNMSTDIFVVDTPWLIEHLEEEAKKEHPEKLRYVLRDLAVKEGAFAYEYTGYLANIHSVKSYYQANIDMLESQKFYSLFSPNQKIYTKVKNEEPTYYANTSKVSTSQFASGSIIEGQVANSVLSRNIHVHKDSLVKDSLLFPRVVIGEGAQVEYAILDKGVEVEHGVVIRGTAEHPVVVKKGAKVTEDIHS | not soluble |
| MPWLLPREIAPLHQKALDRYLGSLTERLSDPNVDRNALVREELARLLYGRPYEELLEANPLAAMGLDPEGITFEAEYYAATDLEKFRRVKPLLWFWKVLDLTPLGQSVHSGVAIRRALAPFIFKRVGKNPKFFQNVEFSVGYNLELGDDVVVHRYVFLDDIGGIKIGDRTSLSDYVNVYSHTHHVLASPDVTLKETIIGSGVRITYHATVLAGVRIGDDAMVGTGAVVTKDIPPHAIALGIPARPVRYKVRHDCPYCRKGEPHPSDLVPKLPDRKGNPDYPDFLPPGFGTREAGS | soluble |
| MEATRNETKPVWVYIIFRKNHCSGHEKMTVNISFDGPIFWKRQVAYIYCCSCHFDEHEGPLMAILEKFEQRVERVCLVDKPVDYPFLPDSLFSYMANKMPKLQFIYLRELDLEKINRGTVVELANHPNLKKVIVHLCRNYEVLEDFRNLPQLLVVKGEIMGLKVSTW | not soluble |
| MSLMKLTKLFLATAISLGVSSAVLAADYDLKFGMNAGTSSNEYKAAEMFAKEVKEKSQGKIEISLYPSSQLGDDRAMLKQLKDGSLDFTFAESARFQLFYPEAAVFALPYVISNYNVAQKALFDTEFGKDLIKKMDKDLGVTLLSQAYNGTRQTTSNRAINSIADMKGLKLRVPNAATNLAYAKYVGASPTPMAFSEVYLALQTNAVDGQENPLAAVQAQKFYEVQKFLAMTNHILNDQLYLVSNETYKELPEDLQKVVKDAAENAAKYHTKLFVDGEKDLVTFFEKQGVKITHPDLVPFKESMKPYYAEFVKQTGQKGESALKQIEAINPEGGSHHHHHH | soluble |
